Targets include DuoMYC (7) (synthetic) (UniProt P01106); monoMYC (4) (synthetic) (UniProt P01106); DuoMYC (5) (synthetic) (UniProt P01106).
Common to all, as to test: EMSA

DuoMYC (7) (synthetic), sequence (P01106 whole entry): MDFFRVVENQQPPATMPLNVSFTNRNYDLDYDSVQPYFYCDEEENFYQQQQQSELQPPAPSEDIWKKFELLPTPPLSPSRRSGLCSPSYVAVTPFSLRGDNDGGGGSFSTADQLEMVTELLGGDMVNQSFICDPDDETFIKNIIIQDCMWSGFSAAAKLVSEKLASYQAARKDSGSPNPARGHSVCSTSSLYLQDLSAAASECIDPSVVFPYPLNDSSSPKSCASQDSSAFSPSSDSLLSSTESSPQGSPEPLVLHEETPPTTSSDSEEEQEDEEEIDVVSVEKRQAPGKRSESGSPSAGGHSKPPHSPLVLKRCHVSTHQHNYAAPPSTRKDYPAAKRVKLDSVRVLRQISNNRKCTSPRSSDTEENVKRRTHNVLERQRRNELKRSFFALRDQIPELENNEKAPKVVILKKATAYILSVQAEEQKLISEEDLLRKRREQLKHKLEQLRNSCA
monoMYC (4) (synthetic), sequence (P01106 365-423): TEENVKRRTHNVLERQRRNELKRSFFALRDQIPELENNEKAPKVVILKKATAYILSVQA
DuoMYC (5) (synthetic), sequence (P01106 365-423): as above

In the case of “ACCCCACCACGTGGTGCCT (double strand) [E-Box DNA]”, the values for the dissociation constant (Kd) in the data set with DuoMYC (7) (synthetic), with monoMYC (4) (synthetic) and in the data set with DuoMYC (5) (synthetic) were 174 nM, 969 nM and 118 nM, respectively.

These data come from article doi:10.1101/2024.03.04.583305.
